Tests used:
Saccharomyces cerevisiae [1] = test: protein stability index of tFT-peptide fusion in deletion strain of DOA10 (PSI (0-1 scale)); higher = more stable (slower turnover)
Description: (§1)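 MPS profiling in S. cerevisiae of two library types built from selected 12-aa C-degron peptides (IN1, IN2, LN1, LN3, VN2, R1-R5, W1-W3, Atg1 and Rpa12 C-termini): saturation mutagenesis libraries and C-terminal +1 capping libraries (13 aa). Each peptide is fused to the C-terminus of a sfGFP-mCherry timer, after a GGGS linker. Cells are FACS-sorted into 8 mCherry/sfGFP bins and sequenced. PSI runs from 0 (unstable) to 1 (stable), measured once in wild type and in the das1Δ or doa10Δ background.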

Saccharomyces cerevisiae [2] = test: protein stability index of tFT-peptide fusion in wild type (PSI (0-1 scale)); higher = more stable (slower turnover); conditions: genetic background: wild type
Description: as §1

Saccharomyces cerevisiae [3] = test: protein stability index of tFT-peptide fusion in deletion strain of DAS1 (PSI (0-1 scale)); higher = more stable (slower turnover)
Description: as §1
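Throughout, for protein stability index of tFT-peptide fusion in deletion strain of DAS1: PSI is a weighted mean of each variant's read distribution over the sorted stability bins, computed only for variants having over 10 reads in total.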
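Throughout, for protein stability index of tFT-peptide fusion in deletion strain of DOA10: PSI per variant is the weighted mean of its sequencing read distribution over the sorted stability bins, counting only variants with over 10 reads summed across bins.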
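Throughout, for protein stability index of tFT-peptide fusion in wild type: PSI derived as read-weighted mean over the 8 sorting bins, only variants exceeding 10 total reads kept, mCherry placed adjacent to the peptide and sfGFP distal.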

| Sequence | protein stability index (Saccharomyces cerevisiae [1]) | protein stability index (Saccharomyces cerevisiae [2]) | protein stability index (Saccharomyces cerevisiae [3]) |
| --- | --- | --- | --- |
| AETLPMCPLLLR | 0.697 | 0.55 |  |
| AHTLPMCPLLLR | 0.664 | 0.346 |  |
| AIILPMCPLLLR | 0.617 | 0.277 |  |
| AIPLPMCPLLLR | 0.653 | 0.28 |  |
| AITLAMCPLLLR | 0.65 | 0.418 |  |
| AITLKMCPLLLR | 0.624 | 0.296 |  |
| AITLLMCPLLLR | 0.629 | 0.37 |  |
| AITLPLCPLLLR | 0.647 | 0.19 |  |
| AITLPMCGLLLR | 0.63 | 0.243 |  |
| AITLPMCILLLR | 0.603 | 0.091 |  |
| AITLPMCMLLLR | 0.651 | 0.133 |  |
| AITLPMCPDLLR | 0.677 | 0.669 |  |
| AITLPMCPLLDR | 0.7 | 0.655 |  |
| AITLPMCPLLFR | 0.669 | 0.27 |  |
| AITLPMCPLLLA | 0.313 | 0.269 |  |
| AITLPMCPLLLE | 0.652 | 0.618 |  |
| AITLPMCPLLLG | 0.544 | 0.509 |  |
| AITLPMCPLLLRP | 0.636 | 0.281 |  |
| AITLPMCPLLLRW | 0.621 | 0.0872 |  |
| AITLPMCPLNLR | 0.673 | 0.645 |  |
| AITLPMCPLSLR | 0.665 | 0.596 |  |
| AITLPMCPLYLR | 0.675 | 0.135 |  |
| AITLPMCPVLLR | 0.623 | 0.322 |  |

| Sequence | protein stability index (Saccharomyces cerevisiae [1]) | protein stability index (Saccharomyces cerevisiae [2]) | protein stability index (Saccharomyces cerevisiae [3]) |
| --- | --- | --- | --- |
| AITLPMCPWLLR | 0.667 | 0.652 |  |
| AITLPMMPLLLR | 0.639 | 0.187 |  |
| AITLPMPPLLLR | 0.682 | 0.257 |  |
| AITLPMSPLLLR | 0.673 | 0.276 |  |
| ALVSLPILLFFR | 0.653 | 0.0758 |  |
| ARTLPMCPLLLR | 0.669 | 0.311 |  |
| ASLRVLLPLYFR | 0.666 | 0.285 |  |
| CDVSLPILLFFR | 0.648 | 0.0512 |  |
| CFVSLPILLFFR | 0.579 | 0.0595 |  |
| CLKSLPILLFFR | 0.618 | 0.083 |  |
| CLLSLPILLFFR | 0.571 | 0.0527 |  |
| CLVALPILLFFR | 0.512 | 0.0608 |  |
| CLVGLPILLFFR | 0.589 | 0.0666 |  |
| CLVPLPILLFFR | 0.57 | 0.0703 |  |
| CLVSLAILLFFR | 0.351 | 0.248 |  |
| CLVSLEILLFFR | 0.262 | 0.211 |  |
| CLVSLIILLFFR | 0.363 | 0.298 |  |
| CLVSLPILLEFR | 0.638 | 0.518 |  |
| CLVSLPILLFFE | 0.57 | 0.454 |  |
| CLVSLPILLFFG | 0.52 | 0.447 |  |
| CLVSLPILLFFH | 0.474 | 0.204 |  |
| CLVSLPILLFFI | 0.436 | 0.197 |  |
| CLVSLPILLFFRT | 0.516 | 0.0656 |  |

| Sequence | protein stability index (Saccharomyces cerevisiae [1]) | protein stability index (Saccharomyces cerevisiae [2]) | protein stability index (Saccharomyces cerevisiae [3]) |
| --- | --- | --- | --- |
| CLVSLPILLFFRY | 0.483 | 0.0612 |  |
| CLVSLPILLFGR | 0.523 | 0.492 |  |
| CLVSLPILLFTR | 0.477 | 0.314 |  |
| CLVSLPILLTFR | 0.627 | 0.0802 |  |
| CLVSLPINLFFR | 0.682 | 0.0948 |  |
| CLVSLPIQLFFR | 0.658 | 0.0792 |  |
| CLVSLPITLFFR | 0.65 | 0.104 |  |
| CLVSLRILLFFR | 0.282 | 0.152 |  |
| CLVSTPILLFFR | 0.623 | 0.132 |  |
| CLVWLPILLFFR | 0.359 | 0.0521 |  |
| CRVSLPILLFFR | 0.62 | 0.0571 |  |
| CSVSLPILLFFR | 0.617 | 0.0485 |  |
| CVVSLPILLFFR | 0.589 | 0.0506 |  |
| EVTRLDAIYFRI | 0.701 | 0.435 |  |
| FITLPMCPLLLR | 0.61 | 0.333 |  |
| FLVSLPILLFFR | 0.539 | 0.0831 |  |
| GCYMCSVGCWFR | 0.667 | 0.326 |  |
| GIYMCSVGCWFR | 0.611 | 0.256 |  |
| GLYACSVGCWFR | 0.678 | 0.386 |  |
| GLYDCSVGCWFR | 0.716 | 0.56 |  |
| GLYKCSVGCWFR | 0.671 | 0.453 |  |
| GLYMCEVGCWFR | 0.642 | 0.485 |  |
| GLYMCGVGCWFR | 0.682 | 0.335 |  |

| Sequence | protein stability index (Saccharomyces cerevisiae [1]) | protein stability index (Saccharomyces cerevisiae [2]) | protein stability index (Saccharomyces cerevisiae [3]) |
| --- | --- | --- | --- |
| GLYMCQVGCWFR | 0.641 | 0.308 |  |
| GLYMCSVGCGFR | 0.655 | 0.628 |  |
| GLYMCSVGCWCR | 0.45 | 0.334 |  |
| GLYMCSVGCWFD | 0.518 | 0.471 |  |
| GLYMCSVGCWFI | 0.585 | 0.44 |  |
| GLYMCSVGCWFM | 0.586 | 0.543 |  |
| GLYMCSVPCWFR | 0.682 | 0.646 |  |
| GLYMCSVWCWFR | 0.399 | 0.305 |  |
| GLYMPSVGCWFR | 0.683 | 0.196 |  |
| GLYMRSVGCWFR | 0.688 | 0.252 |  |
| GLYMSSVGCWFR | 0.688 | 0.299 |  |
| GLYMYSVGCWFR | 0.605 | 0.238 |  |
| GLYPCSVGCWFR | 0.678 | 0.394 |  |
| GQYMCSVGCWFR | 0.673 | 0.363 |  |
| GWYMCSVGCWFR | 0.601 | 0.168 |  |
| HLVSLPILLFFR | 0.618 | 0.108 |  |
| HSLRVLLPLYFR | 0.669 | 0.309 |  |
| KLYMCSVGCWFR | 0.654 | 0.349 |  |
| KVTRLDAIYFRI | 0.67 | 0.251 |  |
| LLYMCSVGCWFR | 0.571 | 0.348 |  |
| LSLRVLLPLYFR | 0.616 | 0.311 |  |
| MLVSLPILLFFR | 0.565 | 0.089 |  |
| NITLPMCPLLLR | 0.664 | 0.359 |  |

| Sequence | protein stability index (Saccharomyces cerevisiae [1]) | protein stability index (Saccharomyces cerevisiae [2]) | protein stability index (Saccharomyces cerevisiae [3]) |
| --- | --- | --- | --- |
| RDLRVLLPLYFR | 0.675 | 0.295 |  |
| RFLRVLLPLYFR | 0.666 | 0.381 |  |
| RPTRLDAIYFRI | 0.666 | 0.504 |  |
| RSERVLLPLYFR | 0.674 | 0.365 |  |
| RSGRVLLPLYFR | 0.665 | 0.372 |  |
| RSLPVLLPLYFR | 0.672 | 0.186 |  |
| RSLRCLLPLYFR | 0.681 | 0.408 |  |
| RSLRKLLPLYFR | 0.67 | 0.474 |  |
| RSLRVLDPLYFR | 0.721 | 0.556 |  |
| RSLRVLLELYFR | 0.593 | 0.557 |  |
| RSLRVLLPLWFR | 0.67 | 0.459 |  |
| RSLRVLLPLYDR | 0.708 | 0.652 |  |
| RSLRVLLPLYFRN | 0.5 | 0.204 |  |
| VRGAVSGWRLVG |  | 0.145 | 0.683 |
| VRGEVGGWRLVG |  | 0.119 | 0.606 |
| VRGFVGGWRLVG |  | 0.145 | 0.691 |
| VRGNVGGWRLVG |  | 0.109 | 0.667 |
| VRGPVGGWRLVG |  | 0.181 | 0.682 |
| VRGVVGGWRLVG |  | 0.176 | 0.679 |
| VRLAVGGWRLVG |  | 0.131 | 0.679 |
| VTGAVGGWRLVG |  | 0.141 | 0.672 |
| VVVYLSCVACIN |  | 0.0234 | 0.0435 |
| YSMRWTFRYWVN |  | 0.042 | 0.495 |

Source: the supplement of paper PMC10724198
